assay: yeast display, Sf9 membrane polyspecificity reagent, FACS + sequencing; frameworks hold sequencing errors
Outline: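 A nanobody's polyreactivity label depends on the gate it was sorted from. Yeast display cells were stained with 10% biotinylated, detergent-solubilized Sf9 membrane reagent for 1 hour at 4 °C, enriched on streptavidin microbeads and sorted by FACS. The low and high (top ~1%) gates were set on anti-HA fluorescence for expression and streptavidin fluorescence for reagent binding.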

Sequence	polyreactivity (PSR sort gate)
QVQLVESGGGLVQAGGSLRLSCAASGGTFRYYAMGWYRQAPGKEREFVAAITSSGGSTYYADSVKGRFTISRDNAKKTVYLQMNRLKPEDTAGYYCATDNPFLWWFRPDQHGMGYWGQGTQVTVSS	low polyreactivity
QVQLVESGGGLVQAGGSLRLSCAASGGTFSKNAMGWYRQAPGKERELVADIRSGGSTYYADSVKGRFTISRDNAKNTVYLQMNSLKPEDTAVYYCNADGDVNEYDYWGQGTQVTVSS	low polyreactivity
QVQLVESGGGLVQAGGSLRLSCAASGGTFSKYAMGWYRQAPGKEREFVAAITVSGGGSYYADSVKGRFTISRDNAKNTVYLQMNSLKPEDTAVYYCAADLAWTASDYWGQGTQVTVSS	low polyreactivity
QVQLVESGGGLVQAGGSLRLSCAASGGTFSKYAMGWYRQAPGKERELVAAITYSSGSKYYADSVKGRFTISRDNAKNTVYLQMNSLKPEDTADYYCAARSGLYWWRFDYWGQGTQVTVSS	high polyreactivity
QVQLVESGGGLVQAGGSLRLSCAASGGTFSNYAMGWYIPAPGKERELVAAITSGGGSTYYADSVKGRFTISRDNAKNTVYLQMNSLKPEDTAVYYCAARRSSYGYWGQGTQVTVSS	high polyreactivity
QVQLVESGGGLVQAGGSLRLSCAASGGTFSVYGMGWYRPAPGKERDLVAVINGTDGITYYADSVKARVTISRDNAKNTVYLQMNSLKPEDTAVYDCAKDSDFLAYHGLDHWGQGTLVTVSS	low polyreactivity
QVQLVESGGGLVQAGGSLRLSCAASGGTFSYNAMGWYRQAPGKERELVAAISSRGGSTYYSDSVKGRFTISRDNAKNTDYLQMNSLKPEDTAVYYCNAVRGVWYGSWGQGTQVTVSS	high polyreactivity
QVQLVESGGGLVQAGGSLRLSCAASGGTFSYYAMGCYRQAPGKERELVASISTDGGSTYYADSVKGRFTISRDNAKNTVYLQMNSLKPEDTAVYYCNARPRGYSDRYGYWGQGTQVTVSS	high polyreactivity
QVQLVESGGGLVQAGGSLRLSCAASGGTFSYYAMGWYRQAPGKERELFASISSGGSTYYADSVKGRFTISRDNAKNTVYLQMNSLKPEDTAVYYCNAEARSRRYRYDYWGQGTQVTVSS	high polyreactivity
QVQLVESGGGLVQAGGSLRLSCAASGGTFTHNAMGWYRQAPGKDWELVAAISRSGGSTSYADSVKGRFTISRYNAKNTVYLQMNSLKPEDTAVYYCADRISRQRSYSRDYWGQGNQVTVSS	high polyreactivity
QVQLVESGGGLVQAGGSLRLSCAASGGTFTWYAMGWYRQAPGKERELVAAISSDGSTYYADSVKGRFTISRDNAKNTVYLQMNSLKPEDTAVYYSAAYSSWGGFDYWGQGTQVTVSS	low polyreactivity
QVQLVESGGGLVQAGGSLRLSCAASGGTFVFYAMGWYRQAPGKERELVAAISSAGRTYYADSVKGRFTISRDNAKNTVYFQMNSLKPEDNAVYYCAAVSSQYDGRYYYWGQGTQVTVSS	high polyreactivity
QVQLVESGGGLVQAGGSLRLSCAASGGTFVPYAMGWYRQAPGKERELVAAITIGGSTSYADSVKGRFTISRDNAKNTVYLQMNSLKPEDTAVYYCNARSYPDYIYWSQRYDYDYWGQGTQVTVSS	low polyreactivity
QVQLVESGGGLVQAGGSLRLSCAASGGTFVRYAMGGYRPAPGKERELVAAISSRGGSTYYADSVKGRFTISRDNAKNTVFLQMNSLKPEDTAVYYCAARPGYYDFYWGQGTQVTVSS	high polyreactivity
QVQLVESGGGLVQAGGSLRLSCAASGGTFVYNAMGWNRQAPGKERELVAAISRSGSRTYYADSVKGRFTISRDNAKNTVYLQMNSLKPEDTAVYYCAARGYYPEYNHWGQGSQVTVSS	high polyreactivity
QVQLVESGGGLVQAGGSLRLSCAASGGTFWYYAMGWYRQAPGKERELVASISRGGSTNYADSVKGRFTISRDNAKNTVYLLMNSLKPEDTAVYYCNAGLRVGPRRYVDYEYDYWGQGTQVTVSS	low polyreactivity
QVQLVESGGGLVQAGGSLRLSCAASGGTFYHYAMGLYRQAPGKERALGAAIRSGARTNYADSVKGRFTISRDNAKNTVYLQMNSLYPEDTAAYSCAAARVRGYVRSGLDYWGQGTQVTVSS	high polyreactivity
QVQLVESGGGLVQAGGSLRLSCAASGGTFYIYVMGWYRQAPGKERELVAAITSGDSTNYADSVKGRFTISRDNAKNTVYLQMNSLKPEDTAVYYCATGYWELRYDYWGQGTQVTVSS	low polyreactivity
QVQLVESGGGLVQAGGSLRLSCAASGGTFYPYAMGWYRQAPGKVRELVAAITSCGSTNYADSVKGRFTISRDNAKKTVYLQMNSLKPEDTAVYYCAAKSSYIRPTNSDDYDYWGQGTQVTVSS	low polyreactivity
QVQLVESGGGLVQAGGSLRLSCAASGGTFYRNAMGWYRQAPGKERELVAAITKRGGSTYYADSVKGRFTISRDNAKNTVYIQINSLKPEDTAVYYCAKDAAPIPGNDSDYWGQGTQVTVSS	high polyreactivity
QVQLVESGGGLVQAGGSLRLSCAASGGTFYRSAMGWYRQAPGKERELVAAISTGSSTYYADSVKGRFTISRDNAKNTVYLQINSQKPEDTAVNYCAARYWERYRSFNYWGQGTQVTVSS	high polyreactivity
QVQLVESGGGLVQAGGSLRLSCAASGGTFYRYAMGWYRQAPGKEREFVASITQRGGRTYYADSVKGRFTISRDNAKNTVYLQMNSLKPEDTAVYYCAVEYYNYPNSRRYDYWGQGTQVTVSS	high polyreactivity

Sequence	polyreactivity (PSR sort gate)
QVQLVESGGGLVQAGGSLRLSCAASGGTFYVYAMGWYRQAPGKERELVAAISTSGGSTYYADSVKGRFTISRDNAKNTVYLQMNSLKPEDTAVYYCAARRVSFSGHPRYGYWGQGTQVTVSS	high polyreactivity
QVQLVESGGGLVQAGGSLRLSCAASGGTFYYNAMGWYRQAPGKERELVAAITSGDRTYYADSVKGRFTISRDIAKNTVYLQMNSLKPEDTAVSYCARAGKTRAGYDYWGQGTQVTVSS	high polyreactivity
QVQLVESGGGLVQAGGSLRLSCAASGGTITRYAMGWYRQAPGKERELVAAISSSGGSTYYADSVKGRFTISRDNAKNTVYLQMNSLKPEDTAVYYCAAEGYTLWYWLEFEYWGQGTQVTVSS	high polyreactivity
QVQLVESGGGLVQAGGSLRLSCAASGGTITSYAMGWYRQAPGKERELVAAITRSGGSTYYADSVKGRFTISRDNAKNTVYLQMNSLKPEDTAVYYCAARYSTYPWYNSWGQGTQVTVSS	high polyreactivity
QVQLVESGGGLVQAGGSLRLSCAASGGTIVWNAMGWYRQAPGKERELVAAITWSGGSTYYADSVKGRFTISRDNAKNTVYLPMNSLQPEATAVYYCNADRFGRAHVYPEFDYWGQGTQVTVSS	low polyreactivity
QVQLVESGGGLVQAGGSLRLSCAASGGTLATYAMGWYRQAPGKERELVARIRIGGSTNYADSVKGRFTISRDNAKNTVYLQMNSLKPEDTAVYYCNKYSVLSRQRYSHPVNYDSWGQGTQVTVSS	high polyreactivity
QVQLVESGGGLVQAGGSLRLSCAASGGTLFTNAMGWYRQAPGKERELVAAISWRGGRTYYADSVKGRFTISRDNAKNTVYLQMNSLKPEDSAVYYCAADVSAVQGYYYWGQGTQVTVSS	low polyreactivity
QVQLVESGGGLVQAGGSLRLSCAASGGTLRRYAMGWYRQAPGKERELVAAIIDRSGSTSYADSVKGRFTISRDNAKNTVYLQMNSLKPEDTAVYYCAARTYRTRYYYWGQGTQVTVSS	high polyreactivity
QVQLVESGGGLVQAGGSLRLSCAASGGTLRYYVMGWYRQAPGKERELVAAISWSGDSTYYADSVKGRFTISRDNAKNTVYLEMNSLKPDDTAVYYCAATYYVTYYYGQANHGYDYWGPGTQVTVSS	low polyreactivity
QVQLVESGGGLVQAGGSLRLSCAASGGTLWGYGMGWYRQAPGKEREFVAAITWSGGNTNYADSVKGRFTISRDNAMNTVYLLMNSLKPEDTAVYYCNARVYYKRKYDYWGQGTQVTVSS	high polyreactivity
QVQLVESGGGLVQAGGSLRLSCAASGGTSQGNAMGWYRQAPGKERELVAAISWSGGTTYYADSVKGRFTISRDNAKNTVYLQMNSLKPEDTAVYYCAAYRYAGRYVPYGDYDYWGQGTQVTVSS	low polyreactivity
QVQLVESGGGLVQAGGSLRLSCAASGGTVWYYTMGWYRQAPGKERELVARITGGSRTNYADSVNGRFTISRDNAKNTVYLQMNSLKPEDTAVYYCARTSWSGVSYDYWGQGTQVTVSS	high polyreactivity
QVQLVESGGGLVQAGGSLRLSCAASGGTYELYVMGWYRQAPGKERELVAAISVNGDDTYYADSVKGRITISRDNAKNTVYLQMNSLKPEDTAVYYCAAEVLGSYYLTGYDYWGQGTQVTVSS	high polyreactivity
QVQLVESGGGLVQAGGSLRLSCAASGHFFFYYPLGWYRQAPGKERELVARFTLSGTSTYYADSVKGRFTISRDNAKNSVYLQMNSLKPEDTAVYYCAAPYFTYGQDDDDYWRQGTQVTVSS	low polyreactivity
QVQLVESGGGLVQAGGSLRLSCAASGHFFFYYTMGWYRPAPGKERELVAGITIGGSTNYADSVKGRFTISRDNAKHTVYVQMNSLKPEDTPVYYCNVVKYVYIYSYWEYYYCGQGTQVTVSS	low polyreactivity
QVQLVESGGGLVQAGGSLRLSCAASGHIFIRYAMGWYRQAPGKDRELVAASTGSGGSTYYADSVKGRFTISRDYAKNTVYLQMNSLKPEDTAVYYCAARTSKKYVPYDYWGQGTQVTVSS	high polyreactivity
QVQLVESGGGLVQAGGSLRLSCAASGHIFVNKAMGWYRQAPGKEREFVAAITSNGARTYYADSVKGRFTISRDNAKNTVYLQMNSLKPEDTAVYYCAKRFARRSQRYDYWGQGTQVTVSS	high polyreactivity
QVQLVESGGGLVQAGGSLRLSCAASGHTFAYNAMGWYRQAPGKEREFVAAITWSTDNTYYADSVKGRFTISRDYAKYTVYLQMNSLKPEDTAVYYCAVDVYFYYRHYGYWGQGTQVTVSS	low polyreactivity
QVQLVESGGGLVQAGGSLRLSCAASGHTFRGYDMGWYRQATGKQRELFASISSSGGSTYYADSVKGRFTISRDNAKNTVYLQMNSLKPEDTAVYYCATRDGVVDTEPDQSYAVELDYWGQGTQVTVSS	low polyreactivity
QVQLVESGGGLVQAGGSLRLSCAASGHTFTINAMGWYRQAPGKERELVAAITFSGGRTYYADSVKGRFTISRDNAKNTVYLQMNSLKPEDTAVYYCAADNPGGSIYDYWGQGTQVTVSS	low polyreactivity
QVQLVESGGGLVQAGGSLRLSCAASGHTLAVNAKGWYRQATGKERELVAAITRSGVTTSYADSVKGRFTISRDNAKNTVYLQMNSLKPEDTAVYYCAAQLDASYLTGGWRRHYNYWGQGTQVTVSS	low polyreactivity
